B1: EEHEE_rd4_0647 (parent)
chain: MQVTWGNVTVTFSNPEEAKKYAEKVARKLGGQVELHNGQFRIK
B2: EHEE_rd3_0053 (parent)
chain: TYTFKVDNKDQAKKAAKWAKKLGLSFQIEKHGDTFKITVQ

Variants of: B1
Assay: folding stability dG (cDNA display proteolysis); higher = more stable
Settings: PBS, room temperature

Point of comparison: F12A, “folding stability dG” value 0.449 kcal/mol. Against it:
- T11I — higher, 2.71 kcal/mol
- F12N — lower, -0.258 kcal/mol
- F12V — higher, 0.887 kcal/mol
- F12Y — higher, 1.28 kcal/mol
- Q2G — higher, 2.12 kcal/mol
- K20T — higher, 2.62 kcal/mol
- K20M — higher, 2.75 kcal/mol
- E34D — higher, 2.11 kcal/mol
- E34T — higher, 2.44 kcal/mol
- Y21A — higher, 1.3 kcal/mol
- Y21D — lower, -0.099 kcal/mol
- G6K — higher, 2.1 kcal/mol
- A22H — lower, 0.174 kcal/mol
- G38I — higher, 0.887 kcal/mol
- V8W — higher, 2.79 kcal/mol
- V8G — higher, 1.49 kcal/mol
- V8H — higher, 2.8 kcal/mol
- S13V — higher, 2.51 kcal/mol
- N14E — higher, 2.2 kcal/mol
- A26R — higher, 1.38 kcal/mol
- H36R — higher, 2.58 kcal/mol
- E23W — higher, 2.73 kcal/mol
- E23N — higher, 2.44 kcal/mol
- E23L — higher, 2.7 kcal/mol
- E23R — higher, 2.23 kcal/mol
- L35W — higher, 2.63 kcal/mol
- V25T — higher, 1.93 kcal/mol
- N37K — higher, 2.26 kcal/mol
- N37M — higher, 2.11 kcal/mol
- P15W — higher, 3.08 kcal/mol
- F40Q — higher, 0.812 kcal/mol
- R27S — higher, 2.4 kcal/mol
- G31H — higher, 2.11 kcal/mol
- K43Q — higher, 2.59 kcal/mol
- K43R — higher, 2.98 kcal/mol
- K43C — higher, 3.45 kcal/mol
- V33C — higher, 1.95 kcal/mol
- V10L — higher, 2.76 kcal/mol
- Q32T — higher, 3.35 kcal/mol
- V3F — higher, 1.97 kcal/mol
- Q39F — higher, 2.23 kcal/mol
- Q39A — higher, 2.73 kcal/mol
- T4F — higher, 2.24 kcal/mol
- T4M — higher, 2.58 kcal/mol
- T4W — higher, 2.11 kcal/mol
- W5A — higher, 1.17 kcal/mol
- T9Y — higher, 1.85 kcal/mol
- T9N — higher, 1.62 kcal/mol

Variants of: B2
Assay: as above
Settings: PBS, room temperature

Point of comparison: I37Y, “folding stability dG” value 0.365 kcal/mol. Against it:
- I37W — lower, 0.115 kcal/mol
- I37M — higher, 1.51 kcal/mol
- I37A — higher, 0.507 kcal/mol
- I37F — higher, 2.15 kcal/mol
- I37L — higher, 1.47 kcal/mol
- I37V — higher, 2.35 kcal/mol
- K36W — higher, 3.32 kcal/mol
- K36N — higher, 2.16 kcal/mol
- K36T — higher, 2.88 kcal/mol
- K36I — higher, 3.28 kcal/mol
- K36S — higher, 2.52 kcal/mol
- K36R — higher, 2.53 kcal/mol
- K36Y — higher, 3.17 kcal/mol
- K36V — higher, 3.14 kcal/mol
- K36E — higher, 2.45 kcal/mol
- K36F — higher, 3.18 kcal/mol
- K36D — higher, 1.65 kcal/mol
- K36Q — higher, 2.66 kcal/mol
- K36A — higher, 2.28 kcal/mol
- K36M — higher, 2.94 kcal/mol
- K36H — higher, 2.66 kcal/mol
- K36G — higher, 1 kcal/mol
- K36L — higher, 3.18 kcal/mol
- Q40M — higher, 2.6 kcal/mol
- Q40F — higher, 3.05 kcal/mol
- Q40D — higher, 1.98 kcal/mol
- Q40C — higher, 2.75 kcal/mol
- Q40A — higher, 2.46 kcal/mol
- Q40K — higher, 2.45 kcal/mol
- Q40W — higher, 3.28 kcal/mol
- Q40H — higher, 2.56 kcal/mol
- Q40G — higher, 2.55 kcal/mol
- Q40P — higher, 1.14 kcal/mol
- Q40L — higher, 2.41 kcal/mol
- Q40N — higher, 2.4 kcal/mol
- Q40R — higher, 2.59 kcal/mol
- Q40I — higher, 2.49 kcal/mol
- Q40V — higher, 2.41 kcal/mol
- Q40E — higher, 2.19 kcal/mol
- Q40Y — higher, 3 kcal/mol
- Q40S — higher, 2.77 kcal/mol
- Q40T — higher, 2.62 kcal/mol
- T34M — higher, 2.59 kcal/mol
- T34R — higher, 2.41 kcal/mol
- T34W — higher, 2.72 kcal/mol
- T34V — higher, 2.71 kcal/mol
- T34P — lower, -0.409 kcal/mol
- T34K — higher, 2.65 kcal/mol
- T34D — higher, 1.89 kcal/mol
- T34S — higher, 2.61 kcal/mol
- T34G — higher, 3.12 kcal/mol
- T34N — higher, 2.28 kcal/mol
- T34Y — higher, 2.92 kcal/mol
- T34L — higher, 2.36 kcal/mol
- T34E — higher, 2.4 kcal/mol
- T34F — higher, 2.79 kcal/mol
- T34I — higher, 2.68 kcal/mol
- T34A — higher, 2.64 kcal/mol
- T34Q — higher, 2.81 kcal/mol
- T34H — higher, 2.92 kcal/mol
- T38H — higher, 1.8 kcal/mol
- T38W — higher, 1.76 kcal/mol
- T38A — higher, 1.3 kcal/mol
- T38I — higher, 2.34 kcal/mol
- T38M — higher, 1.83 kcal/mol
- T38Q — higher, 1.57 kcal/mol
- T38K — higher, 1.65 kcal/mol
- T38N — higher, 1.09 kcal/mol
- T38L — higher, 1.78 kcal/mol
- T38E — higher, 1.1 kcal/mol
- T38S — higher, 1.81 kcal/mol
- T38Y — higher, 1.77 kcal/mol
- T38F — higher, 1.71 kcal/mol
- T38V — higher, 2.01 kcal/mol
- T38G — lower, 0.192 kcal/mol
- T38D — higher, 0.562 kcal/mol
- T38R — higher, 1.72 kcal/mol
- V39A — higher, 0.718 kcal/mol
- V39R — lower, -0.567 kcal/mol
- V39G — lower, -0.471 kcal/mol
- V39W — higher, 1.56 kcal/mol
- V39N — lower, -0.981 kcal/mol
- V39Y — higher, 1.68 kcal/mol
- V39Q — lower, -0.762 kcal/mol
- V39T — higher, 0.975 kcal/mol
- V39M — higher, 1.86 kcal/mol
- V39F — higher, 2.06 kcal/mol
- V39C — higher, 1.68 kcal/mol
- V39D — lower, -0.839 kcal/mol
- V39L — higher, 2.23 kcal/mol
- V39H — lower, -0.097 kcal/mol
- V39I — higher, 2.82 kcal/mol
- V39S — lower, -0.061 kcal/mol
- V39P — lower, -0.963 kcal/mol
- F35C — higher, 1.93 kcal/mol
- F35T — higher, 0.632 kcal/mol
- F35G — lower, -0.794 kcal/mol
- F35R — lower, 0.294 kcal/mol
- F35V — higher, 1.16 kcal/mol
- F35K — lower, -0.99 kcal/mol
- F35N — lower, -0.413 kcal/mol
- F35W — higher, 2.75 kcal/mol
- F35H — higher, 0.715 kcal/mol
- F35S — lower, -0.159 kcal/mol
- F35L — higher, 1.49 kcal/mol
- F35Y — higher, 2.75 kcal/mol
- F35M — higher, 1.31 kcal/mol
- F35A — lower, 0.298 kcal/mol
- F35Q — lower, 0.075 kcal/mol
- F35I — higher, 1.85 kcal/mol
- D33Y — higher, 1.8 kcal/mol
- D33V — higher, 1.95 kcal/mol
- D33T — higher, 2.37 kcal/mol
- D33S — higher, 2.33 kcal/mol
- D33W — higher, 1.76 kcal/mol
- D33Q — higher, 2.16 kcal/mol
- D33R — higher, 2.11 kcal/mol
